Measurements published in paper PMC4990751 (Molecules and Cells, 2016).

Molecular target: the molecule itself
Test: SEC

B1: T105C-PaAhpC (enzyme, Pseudomonas aeruginosa PAO1, UniProt Q9I6Z3 1-187, looked up)
chain: MSLINTQVQPFKVNAFHNGKFIEVTEESLKGKWSVLIFMPAAFTFNCPTEIEDAANNYGEFQKAGAEVYIVTTDTHFSHKVWHETSPAVGKAQFPLIGDPTHQLCNAFGVHIPEEGLALRGTFVINPEGVIKTVEIHSNEIARDVGETVRKLKAAQYTAAHPGEVCPAKWKEGEKTLAPSLDLVGKI
stoichiometry N: 10
